Data on 1 substance can be found in patent publication US6492124B1, “Trance activated signal transduction pathways in osteoclasts” (The Rockefeller University, priority 1999, dated 2002).

What all share (assay type): cell-based, mouse
One data set has as its system c-Src. Briefly: c-Src immunoprecipitate in vitro kinase assay with SAM68 after TRANCE stimulation of cells. As for the experimental part:
FIG. 3. c-Src is required for TRANCE-induced PKB activation and osteoclast survival. (A) c-Src was immunoprecipitated from osteoclasts, dendritic cells and macrophages stimulated with TRANCE (1 μg/ml) for the indicated times using an anti-c-Src-specific monoclonal antibody (327). PTK activity of the c-Src immunprecipitates were measured in vitro using SAM68, a PTK specific substrate. The degree of SAM68 phosphorylation was determined by Western blot analysis using an anti-phospho-tyrosine antibody (4G10) and densitometry. Note that c-Src kinase activity was not detectable in TRANCE-treated macrophages most likely due to low levels of c-Src in these cells (Lacey, et al., supra, 1998). (B) Osteoclasts derived from wild type and c-Src deficient mice were stimulated with TRANCE (5 μg/ml) for 10 min and the levels of phosphorylated PKB (PKB^P), total PKB, and total IκBα were determined as in FIG. 1. […] TRAP solution assays were performed and percent survival calculated. […] Osteoclasts were detected by TRAP solution assays. […]
FIG. 5. […] PTK activity of the c-Src immunoprecipitates was measured by in vitro kinase assays using SAM68 as a PTK substrate. The degree of SAM68 phosphorylation (SAM68^P) was determined by Western blot analysis using a phospho-tyrosine specific antibody (4G10) followed by densitometry. […] The degree of SAM68 phosphorylation (SAM68^P) was determined as in (A). […]

The subject of another data set is p44/42 ERK. Kind of data set: p44/42 ERK phosphorylation in osteoclasts and dendritic cells (Western blot). The note with it: after 20 min of TRANCE stimulation. Here is the method:
FIG. 1. TRANCE activates p44/42 ERK, NF-κB and PKB in osteoclasts and dendritic cells. (A) Mature bone marrow-derived osteoclasts were stimulated for the indicated times with recombinant hCD8-TRANCE (TRANCE; 1 μg/ml). Levels of phosphorylated forms of p44/p42 ERK (p44 ERK^P and p42 ERK^P), IκBα (IκB-α^P) and PKB (PKB^P) in whole cell extracts were determined using phospho-peptide-specific antibodies as indicated in the figure. The membranes were stripped and incubated with antibodies against the p44/p42 ERK, IκB-α, and PKB as indicated to confirm that similar amounts of whole cell extracts were analyzed. Note the decrease of IκB-α after 10 min of treatment due to its degradation. (B) as in (A) except the use of mature bone marrow-derived dendritic cells instead of osteoclasts.
Cell stimulation, cell transfection and in vitro assays. In vitro differentiated mature dendritic cells, macrophages and osteoclasts were washed to remove exogenous growth factors, cultured in media with low serum (0.5% FCS, 6 hours), then stimulated by adding various cytokines in the presence or absence of inhibitors for various times as indicated. After stimulation, the cells were washed in ice-cold PBS, and subjected to Western blot analysis or immunoprecipitation as described below. […]

A further data set concerns JNK. Briefly: JNK activation measured by its phosphorylation in osteoclasts and dendritic cells. The following applies: TRANCE, data not shown. As for the experimental part:
Cell stimulation, cell transfection and in vitro assays. In vitro differentiated mature dendritic cells, macrophages and osteoclasts were washed to remove exogenous growth factors, cultured in media with low serum (0.5% FCS, 6 hours), then stimulated by adding various cytokines in the presence or absence of inhibitors for various times as indicated. After stimulation, the cells were washed in ice-cold PBS, and subjected to Western blot analysis or immunoprecipitation as described below.
For Western blotting, whole-cell extracts (20 μg of total protein), immunoprecipitates or kinase reactions were resolved on SDS-PAGE, electro-blotted to PVDF membranes (Immobilon-P, Millipore) according to standard methods (Maniatis, et al., Molecular Cloning: A Laboratory Manual (Cold Spring Harbor Laboratory, New York) 1989), probed with antibodies according to the manufacturer's protocol, and visualized using an immunodetection system. Stripping was performed by incubating the blots in stripping buffer (62.5 mM Tris pH 6.8, 2% SDS, 100 mM β-mercaptoethanol) for 30 min at 55° C.

As to “TNF-related activation-induced cytokine [TRANCE]”, the c-Src kinase activity result in the data set with c-Src (TRANCE-treated macrophages) is on record as “no detectable”. For the same substance, in the data set with c-Src (osteoclasts and dendritic cells, TRANCE 1 μg/ml), the “induction of c-Src kinase activity” value is listed as “approximately 2 fold”. In addition, in the data set on p44/42 ERK, the ERK phosphorylation result was “transiently induced”. In addition, in the data set with JNK, the “JNK activation as measured by its phosphorylation” value is “not detected”.
